Results on four molecules are retold here after PMC4464616, “SIRT6 protein deacetylase interacts with MYH DNA glycosylase, APE1 endonuclease, and Rad9–Rad1–Hus1 checkpoint clamp” (BMC Molecular Biology, 2015).

B1: His-tagged human Hus1 (hHus1) (natural protein, UniProt O60921 1-280, looked up)
chain: MKFRAKIVDGACLNHFTRISNMIAKLAKTCTLRISPDKLNFILCDKLANGGVSMWCELEQENFFNEFQMEGVSAENNEIYLELTSENLSRALKTAQNARALKIKLTNKHFPCLTVSVELLSMSSSSRIVTHDIPIKVIPRKLWKDLQEPVVPDPDVSIYLPVLKTMKSVVEKMKNISNHLVIEANLDGELNLKIETELVCVTTHFKDLGNPPLASESTHEDRNVEHMAEVHIDIRKLLQFLAGQQVNPTKALCNIVNNKMVHFDLLHEDVSLQYFIPALS
notes: human Hus1, subunit of the Rad9-Rad1-Hus1 checkpoint clamp; pET21a usually adds a C-terminal His6 (surmise); source: E. coli BL21-Star with pET21a-hHus1, purified
B2: GST-hMYH(65-350) (domain or fragment, human, UniProt Q9UIF7-3 65-350, looked up)
chain: ASVSSYHLFRDVAEVTAFRGSLLSWYDQEKRDLPWRRRAEDEMDLDRRAYAVWVSEVMLQQTQVATVINYYTGWMQKWPTLQDLASASLEEVNQLWAGLGYYSRGRRLQEGARKVVEELGGHMPRTAETLQQLLPGVGRYTAGAIASIAFGQATGVVDGNVARVLCRVRAIGADPSSTLVSQQLWGLAQQLVDPARPGDFNQAAMELGATVCTPQRPLCSQCPVESLCRARQRVEQEQLLASGSLSGSPDVEECAPNTGQCHLCLPPSEPWDQTLGVVNFPRKASR
notes: also called MYHΔC5; ΔC5; source: purified, immobilised on beads
B3: GST-hRad1 (natural protein, human, UniProt O60671 1-282, looked up)
chain: MPLLTQQIQDEDDQYSLVASLDNVRNLSTILKAIHFREHATCFATKNGIKVTVENAKCVQANAFIQAGIFQEFKVQEESVTFRINLTVLLDCLSIFGSSPMPGTLTALRMCYQGYGYPLMLFLEEGGVVTVCKINTQEPEETLDFDFCSTNVINKIILQSEGLREAFSELDMTSEVLQITMSPDKPYFRLSTFGNAGSSHLDYPKDSDLMEAFHCNQTQVNRYKISLLKPSTKALVLSCKVSIRTDNRGFLSLQYMIRNEDGQICFVEYYCCPDEEVPESES
notes: human Rad1, subunit of the Rad9-Rad1-Hus1 checkpoint clamp; also called GST-Rad1; GST-tagged hRad1; source: immobilised on beads
B4: FLAG-tagged mouse Sirt6 (FLAG-mSirt6), wild type (natural protein, UniProt P59941 1-334, looked up)
chain: MSVNYAAGLSPYADKGKCGLPEIFDPPEELERKVWELARLMWQSSSVVFHTGAGISTASGIPDFRGPHGVWTMEERGLAPKFDTTFENARPSKTHMALVQLERMGFLSFLVSQNVDGLHVRSGFPRDKLAELHGNMFVEECPKCKTQYVRDTVVGTMGLKATGRLCTVAKTRGLRACRGELRDTILDWEDSLPDRDLMLADEASRTADLSVTLGTSLQIRPSGNLPLATKRRGGRLVIVNLQPTKHDRQADLRIHGYVDEVMCRLMKHLGLEIPAWDGPCVLDKALPPLPRPVALKAEPPVHLNGAVHVSYKSKPNSPILHRPPKRVKTEAAPS
notes: mouse Sirt6, full length cDNA in pcDNA3.1; about 90% pure

Changes are numbered by the printed parent chain.

The target of one assay is T1, GST-hMYH(1-350) (human, UniProt Q9UIF7-3 1-350).
T1 construct: also called MYHΔC3; ΔC3; source: purified, immobilised on beads
T1 sequence (looked up): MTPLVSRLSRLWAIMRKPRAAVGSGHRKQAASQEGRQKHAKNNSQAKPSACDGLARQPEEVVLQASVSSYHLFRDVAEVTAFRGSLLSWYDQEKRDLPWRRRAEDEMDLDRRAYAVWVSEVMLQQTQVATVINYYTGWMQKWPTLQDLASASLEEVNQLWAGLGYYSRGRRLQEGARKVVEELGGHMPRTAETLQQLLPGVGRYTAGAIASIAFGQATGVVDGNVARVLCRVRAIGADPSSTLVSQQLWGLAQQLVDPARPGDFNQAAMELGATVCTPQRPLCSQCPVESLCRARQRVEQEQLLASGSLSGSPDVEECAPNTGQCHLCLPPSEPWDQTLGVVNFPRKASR
Put plainly: pull-down; GST fusion protein immobilised on beads; 50 ug/ml ethidium bromide added for 30 min before the partner; bound protein detected by Western blot (FLAG, hAPE1 or His antibody); in some panels a further purified partner (hAPE1, mSirt6, hHus1) was added. To be noted: both partners purified. For orientation: In western blotting, separated proteins are transferred to a membrane and probed.

In assay [1] the target is B4. The assay is described as above. To be noted: both partners purified.
Assay [2] deals with human APE1 (hAPE1), recombinant (human, UniProt P27695 1-318). Put plainly: cell-based or functional assay.
human APE1 (hAPE1), recombinant, sequence (P27695 whole entry): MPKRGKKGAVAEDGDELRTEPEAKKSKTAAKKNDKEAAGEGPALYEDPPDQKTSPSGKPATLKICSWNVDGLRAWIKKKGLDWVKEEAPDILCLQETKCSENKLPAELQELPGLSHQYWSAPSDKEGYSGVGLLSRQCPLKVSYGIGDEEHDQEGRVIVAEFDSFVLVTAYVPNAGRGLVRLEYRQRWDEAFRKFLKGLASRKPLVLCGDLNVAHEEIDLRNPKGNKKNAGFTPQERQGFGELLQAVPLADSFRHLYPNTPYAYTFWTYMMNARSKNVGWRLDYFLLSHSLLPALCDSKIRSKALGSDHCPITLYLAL
For assay [3], the target named is T2, mouse Myh (mMyh), recombinant (mouse, UniProt Q99P21 1-515).
T2 sequence (looked up): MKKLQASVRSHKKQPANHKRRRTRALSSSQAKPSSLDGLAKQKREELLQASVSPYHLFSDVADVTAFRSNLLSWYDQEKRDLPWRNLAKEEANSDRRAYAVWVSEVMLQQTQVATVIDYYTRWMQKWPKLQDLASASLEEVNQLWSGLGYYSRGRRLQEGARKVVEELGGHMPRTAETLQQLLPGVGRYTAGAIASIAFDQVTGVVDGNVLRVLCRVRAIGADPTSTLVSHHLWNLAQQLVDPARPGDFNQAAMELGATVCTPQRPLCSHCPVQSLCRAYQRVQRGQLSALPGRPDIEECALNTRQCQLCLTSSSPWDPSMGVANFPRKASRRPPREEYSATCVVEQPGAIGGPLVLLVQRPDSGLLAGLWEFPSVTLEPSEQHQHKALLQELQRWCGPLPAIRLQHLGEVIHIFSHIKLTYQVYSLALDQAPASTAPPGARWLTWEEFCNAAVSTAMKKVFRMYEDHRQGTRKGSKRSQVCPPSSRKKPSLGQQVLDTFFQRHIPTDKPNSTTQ
Put plainly: cell-based or functional assay.

The next assay deals with T3, GST-hMYH(1-350) Q324H (human, UniProt Q9UIF7-3 1-350, Q324H).
T3 construct: human MutY homolog (MYH, MUTYH), residues 1-350 with Q324H, a variant found in MAP patients; also called hMYH^Q324H; Q338H according to the new nomenclature; source: purified, immobilised on beads
T3 sequence (looked up): T1 sequence (looked up) with Q324H
Put plainly: pull-down; GST fusion protein immobilised on beads; 50 ug/ml ethidium bromide added for 30 min before the partner; bound protein detected by Western blot (FLAG, hAPE1 or His antibody); in some panels a further purified partner (hAPE1, mSirt6, hHus1) was added. To be noted: both partners purified.

The target of a further assay is T4, GST-hRad9 (human, UniProt Q99638 1-391).
T4 construct: human Rad9, subunit of the Rad9-Rad1-Hus1 checkpoint clamp; also called GST-Rad9; GST-tagged hRad9; source: immobilised on beads
T4 sequence (looked up): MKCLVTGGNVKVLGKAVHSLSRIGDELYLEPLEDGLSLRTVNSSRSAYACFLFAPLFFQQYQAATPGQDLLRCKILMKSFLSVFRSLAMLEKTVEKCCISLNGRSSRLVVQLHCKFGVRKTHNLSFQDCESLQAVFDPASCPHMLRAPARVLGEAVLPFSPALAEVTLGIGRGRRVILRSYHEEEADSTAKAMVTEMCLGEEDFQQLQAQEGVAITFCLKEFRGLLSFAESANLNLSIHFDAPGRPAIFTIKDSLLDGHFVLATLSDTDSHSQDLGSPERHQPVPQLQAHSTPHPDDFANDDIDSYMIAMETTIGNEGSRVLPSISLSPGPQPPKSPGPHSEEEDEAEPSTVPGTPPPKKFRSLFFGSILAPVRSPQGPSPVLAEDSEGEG
The assay is described as above. To be noted: both partners purified.

As to B1, the binding result with GST-hMYH(1-350) is given as “binds”.
Turning to B2, the binding result in assay [1] was “binds”.
For B3, the binding result in assay [1] is “binds”.
For the molecule B4, the “3'-phosphodiesterase activity of hAPE1 on 3'-FAM-labeled U/G-DNA (0.01 nM hAPE1, 1-16 nM mSirt6); fold stimulation at a Sirt6/APE1 ratio of 400” value in assay [2] was found to be 2 fold. Moreover, the “AP endonuclease activity of hAPE1 on FAM-labeled THF/G-DNA (0.002 nM hAPE1, 1-8 nM mSirt6); fold stimulation at a Sirt6/APE1 ratio of 3,000” value in assay [2] was 2 fold. Further, the “mMyh glycosylase activity on FAM-labeled A/G^o-DNA (0.5 nM mMyh, 1-32 nM mSirt6); fold stimulation at a Sirt6/Myh ratio of 32” value in assay [3] worked out at 3 fold. Moreover, the “fold stimulation of binding with a tenfold excess of hAPE1, against no hAPE1” value with GST-hMYH(1-350) was determined as 3 fold. Besides, the binding result with GST-hMYH(1-350) Q324H and with GST-hRad9 was “binds” throughout.
